Legend:
[1] = target: Bovine recombinant PrP (Prionics), P10279
[2] = target: T1, Q4, synthetic peptide Ac-EKTAGKPILF-OH
T1 chain: EKTAGKPILF

Sequence of Bovine recombinant PrP (Prionics), P10279 (P10279 25-242): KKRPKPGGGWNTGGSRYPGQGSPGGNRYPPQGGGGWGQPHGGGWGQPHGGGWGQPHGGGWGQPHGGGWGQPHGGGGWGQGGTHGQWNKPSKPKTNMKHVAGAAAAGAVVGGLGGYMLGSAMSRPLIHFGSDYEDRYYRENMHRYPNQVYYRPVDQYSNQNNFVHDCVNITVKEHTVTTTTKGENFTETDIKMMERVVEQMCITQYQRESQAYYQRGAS

B1: Recombinant FLAG-tagged human GPBP (expressed in yeast, FLAG-affinity purified) (protein)
chain: MSDNQSWNSSGSEEDPETESGPPVERCGVLSKWTNYIHGWQDRWVVLKNNALSYYKSEDETEYGCRGSICLSKAVITPHDFDECRFDISVNDSVWYLRAQDPDHRQQWIDAIEQHKTESGYGSESSLRRHGSMVSLVSGASGYSATSTSSFKKGHSLREKLAEMETFRDILCRQVDTLQKYFDACADAVSKDELQRDKVVEDDEDDFPTTRSDGDFLHSTNGNKEKLFPHVTPKGINGIDFKGEAITFKATTAGILATLSHCIELMVKREDSWQKRLDKETEKKRRTEEAYKNAMTELKKKSHFGGPDYEEGPNSLINEEEFFDAVEAALDRQDKIEEQSQSEKVRLHWPTSLPSGDAFSSVGTHRFVQKPYSRSSSMSSIDLVSASDDVHRFSSQVEEMVQNHMTYSLQDVGGDANWQLVVEEGEMKVYRREVEENGIVLDPLKATHAVKGVTGHEVCNYFWNVDVRNDWETTIENFHVVETLADNAIIIYQTHKRVWPASQRDVLYLSVIRKIPALTENDPETWIVCNFSVDHDSAPLNNRCVRAKINVAMICQTLVSPPEGNQEISRDNILCKITYVANVNPGGWAPASVLRAVAKREYPKFLKRFTSYVQEKTAGKPILF
in vitro phosphorylation with [γ^32P]-ATP, autoradiography [1]: transferred phosphates to PrP | GPBP autophosphorylation in vitro [2]: inhibited GPBP autophosphorylation in a more limited manner

From patent US20040175758
